Assay results from patent publication US20250101091A1 (Eli Lilly, published 2025).

Legend:
[1] = biological target: T1, Cleaved rat epiregulin (rat, UniProt Q9Z0L5 56-101); assay: cell-based or functional assay
[2] = biological target: T1, Cleaved rat epiregulin; assay: MSD-SET solution equilibrium titration, 37 C, pH 6.0
Procedure: (§1) An MSD SI6000 instrument (Meso Scale Discovery, Rockville, MD) is used for reading MSD plates. MSD assay plates are prepared as follows. A multi-array 96-well plate (Meso Scale Discovery, P/N L15XA-3) is coated overnight at 2-8° C. with 30 μl of a 1 μg/ml solution of a monomeric Fc-human epiregulin fusion in PBS. Plates are washed 3× in PBST following coating, then blocked for 1 hour at room temperature with shaking in 3% Blocker A (diluted in PBS from 5% Blocker A, Meso Scale Discovery, P/N R93AA-1).
(§2) SET samples are prepared in 1% Blocker A at pH 6.0 and at pH 7.4. Antibody is diluted to either 20 and 200 μM (pH 7.4) or 200 μM and 2 nM (pH 6.0). Epiregulin is serially diluted for a total of 12 dilutions centered around 2× the antibody concentration. This is accomplished by using starting concentrations of 10 and 100 nM (pH 7.4) or 100 nM and 1000 nM (pH 6.0) which are then 10× diluted once, 2× serially diluted 9 times, and then 10× diluted for the final dilution. Epiregulin titrations and fixed concentration antibody solutions are combined 1:1 to prepare the SET solutions. SET solutions are incubated at 37° C. for approximately 96 hours to allow binding to reach equilibrium. […] The plate is then washed 3× with PBST, then 100 μl of 1× Read Buffer T (diluted in water from 4× Read Buffer T, Meso Scale Discovery, P/N R93AA-1) is added before reading the plate. […]

[3] = biological target: T2, HB-EGF (human, UniProt Q99075 63-148); assay: ELISA: biotinylated ligand (20 nM) captured on neutravidin plate, antibody titrated 1:3, anti-human kappa-AP detection, OD405 [panel A]
T2 construct: Bought reagent, biotinylated in the ELISA
Procedure: (§3) ELISA assays can be run as follows. […] After blocking, plates are washed 3 times with PBS plus 0.05% Tween20 to remove residual blocking buffer. […] Ligands are transferred to blocked assay plate and incubated at room temperature for 1 hour. The assay plate is washed 3 times with PBS plus 0.05% Tween20. […] The assay plate is washed 3 times with PBS plus 0.05% Tween20. […] The assay plate is washed 3 times with PBS plus 0.05% Tween20.

[4] = biological target: T3, Amphiregulin (human, UniProt P15514 101-198); assay: as above
T3 construct: Bought reagent, biotinylated in the ELISA; also called AREG
T3 sequence (looked up): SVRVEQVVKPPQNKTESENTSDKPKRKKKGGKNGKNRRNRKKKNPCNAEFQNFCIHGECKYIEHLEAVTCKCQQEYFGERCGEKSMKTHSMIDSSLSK
Procedure: as §3

[5] = biological target: T4, human Epigen (human, UniProt Q6UW88 53-104, limits assumed); assay: as above
T4 construct: Bought reagent, biotinylated in the ELISA; also called EPGN
Procedure: as §3

[6] = biological target: T5, EGF (human, UniProt P01133 971-1023); assay: as above
T5 construct: Bought reagent, biotinylated in the ELISA; also called epidermal growth factor
Procedure: as §3

[7] = biological target: T6, Betacellulin (human, UniProt P35070 32-111); assay: as above
T6 construct: Bought reagent, biotinylated in the ELISA; also called BTC
T6 sequence (looked up): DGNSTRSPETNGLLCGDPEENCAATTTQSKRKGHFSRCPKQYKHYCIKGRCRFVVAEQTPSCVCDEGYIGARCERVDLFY
Procedure: as §3

[8] = biological target: T7, TGFα (human, UniProt P01135 40-89); assay: as above
T7 construct: Bought reagent, biotinylated in the ELISA; also called TGFA; transforming growth factor alpha
Procedure: as §3

[9] = biological target: T1, Cleaved rat epiregulin; assay: MSD-SET solution equilibrium titration, 37 C, pH 7.4
Procedure: as §1, §2

IC50, neutralization of epiregulin induced luciferase reporter activity in C166-AP1-Luciferase cells [1]: 2.5 nM
Kd [2]: 0.286 nM
binding result [3]: no binding (tested: 10 ug/mL)
binding result [4]: no binding (tested: 10 ug/mL)
binding result [5]: no binding (tested: 10 ug/mL)
binding result [6]: no binding (tested: 10 ug/mL)
binding result [7]: no binding (tested: 10 ug/mL)
binding result [8]: no binding (tested: 10 ug/mL)
Kd [9]: 0.0302 nM
B1: Antibody 1 (antibody, human IgG4 S228P, kappa, F234A L235A, V domains shown)
VH: QVQLQESGPGLVKPSETLSLTCTVSGGSISSYYWSWIRQPAGKGLEWIGRIYPSGNTNYNPSLKSRVTISVDTSKNQFSLKLSSVTAADTAVYYCARGGLVMDVWGQGTLVTVSS
VL: EIVLTQSPGTLSLSPGERATLSCRASQSVEFSYLAWYQQKPGQAPRLLIYGASSRATGIPDRFSGSGSGTDFTLTISRLEPEDFAVYYCHQYGTNPFTFGQGTKVEIKR
notes: Fully human IgG4 (S228P, F234A/L235A by EU index, C-terminal Lys deleted), kappa light chain
